Assay results published in patent US20230192865A1.
Residue numbers refer to the chain shown, from its start.

Legend:
[1] = target: T1, Galectin-10 protein with His tag (expressed and purified with pk277) (Homo sapiens (Human)) (UniProt Q05315); assay: ELISA on coated His-tagged Galectin-10, anti-GST detection
T1 sequence: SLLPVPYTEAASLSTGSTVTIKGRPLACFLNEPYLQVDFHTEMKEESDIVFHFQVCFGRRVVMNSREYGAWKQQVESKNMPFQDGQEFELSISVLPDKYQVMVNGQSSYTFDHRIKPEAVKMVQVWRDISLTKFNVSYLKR

[2] = target: T1, Galectin-10 protein with His tag (expressed and purified with pk277) (Homo sapiens (Human)); assay: ELISA, His-tagged Galectin-10 coated at 125 ng/mL, 254# diluted 1:200, anti-GST mouse antibody and HRP goat anti-mouse, average
[3] = target: T1, Galectin-10 protein with His tag (expressed and purified with pk277) (Homo sapiens (Human)); assay: ELISA, His-tagged Galectin-10 coated at 500 ng/mL, 254# diluted 1:200, anti-GST mouse antibody and HRP goat anti-mouse, average
[4] = target: T1, Galectin-10 protein with His tag (expressed and purified with pk277) (Homo sapiens (Human)); assay: ELISA, His-tagged Galectin-10 coated at 125 ng/mL, 254# diluted 1:200, anti-GST mouse antibody and HRP goat anti-mouse, repeat 1
[5] = target: T1, Galectin-10 protein with His tag (expressed and purified with pk277) (Homo sapiens (Human)); assay: ELISA, His-tagged Galectin-10 coated at 125 ng/mL, 254# diluted 1:200, anti-GST mouse antibody and HRP goat anti-mouse, repeat 2
[6] = target: T1, Galectin-10 protein with His tag (expressed and purified with pk277) (Homo sapiens (Human)); assay: ELISA, His-tagged Galectin-10 coated at 125 ng/mL, 254# diluted 1:200, anti-GST mouse antibody and HRP goat anti-mouse, repeat 3
[7] = target: T1, Galectin-10 protein with His tag (expressed and purified with pk277) (Homo sapiens (Human)); assay: ELISA, His-tagged Galectin-10 coated at 2500 ng/mL, 254# diluted 1:200, anti-GST mouse antibody and HRP goat anti-mouse, average
[8] = target: T1, Galectin-10 protein with His tag (expressed and purified with pk277) (Homo sapiens (Human)); assay: ELISA, His-tagged Galectin-10 coated at 500 ng/mL, 254# diluted 1:200, anti-GST mouse antibody and HRP goat anti-mouse, repeat 1
[9] = target: T1, Galectin-10 protein with His tag (expressed and purified with pk277) (Homo sapiens (Human)); assay: ELISA, His-tagged Galectin-10 coated at 500 ng/mL, 254# diluted 1:200, anti-GST mouse antibody and HRP goat anti-mouse, repeat 2
[10] = target: T1, Galectin-10 protein with His tag (expressed and purified with pk277) (Homo sapiens (Human)); assay: ELISA, His-tagged Galectin-10 coated at 500 ng/mL, 254# diluted 1:200, anti-GST mouse antibody and HRP goat anti-mouse, repeat 3
[11] = target: T1, Galectin-10 protein with His tag (expressed and purified with pk277) (Homo sapiens (Human)); assay: ELISA, His-tagged Galectin-10 coated at 2500 ng/mL, 254# diluted 1:200, anti-GST mouse antibody and HRP goat anti-mouse, repeat 1
[12] = target: T1, Galectin-10 protein with His tag (expressed and purified with pk277) (Homo sapiens (Human)); assay: ELISA, His-tagged Galectin-10 coated at 2500 ng/mL, 254# diluted 1:200, anti-GST mouse antibody and HRP goat anti-mouse, repeat 2
[13] = target: T1, Galectin-10 protein with His tag (expressed and purified with pk277) (Homo sapiens (Human)); assay: ELISA, His-tagged Galectin-10 coated at 2500 ng/mL, 254# diluted 1:200, anti-GST mouse antibody and HRP goat anti-mouse, repeat 3
[14] = target: T1, Galectin-10 protein with His tag (expressed and purified with pk277) (Homo sapiens (Human)); assay: ELISA, His-tagged Galectin-10 coated at 125 ng/mL, 225# diluted 1:200, anti-GST mouse antibody and HRP goat anti-mouse, average
[15] = target: T1, Galectin-10 protein with His tag (expressed and purified with pk277) (Homo sapiens (Human)); assay: ELISA, His-tagged Galectin-10 coated at 500 ng/mL, 225# diluted 1:200, anti-GST mouse antibody and HRP goat anti-mouse, average
[16] = target: T1, Galectin-10 protein with His tag (expressed and purified with pk277) (Homo sapiens (Human)); assay: ELISA, His-tagged Galectin-10 coated at 125 ng/mL, 225# diluted 1:200, anti-GST mouse antibody and HRP goat anti-mouse, repeat 1
[17] = target: T1, Galectin-10 protein with His tag (expressed and purified with pk277) (Homo sapiens (Human)); assay: ELISA, His-tagged Galectin-10 coated at 125 ng/mL, 225# diluted 1:200, anti-GST mouse antibody and HRP goat anti-mouse, repeat 2
[18] = target: T1, Galectin-10 protein with His tag (expressed and purified with pk277) (Homo sapiens (Human)); assay: ELISA, His-tagged Galectin-10 coated at 125 ng/mL, 225# diluted 1:200, anti-GST mouse antibody and HRP goat anti-mouse, repeat 3
[19] = target: T1, Galectin-10 protein with His tag (expressed and purified with pk277) (Homo sapiens (Human)); assay: ELISA, His-tagged Galectin-10 coated at 2500 ng/mL, 225# diluted 1:200, anti-GST mouse antibody and HRP goat anti-mouse, average
[20] = target: T1, Galectin-10 protein with His tag (expressed and purified with pk277) (Homo sapiens (Human)); assay: ELISA, His-tagged Galectin-10 coated at 500 ng/mL, 225# diluted 1:200, anti-GST mouse antibody and HRP goat anti-mouse, repeat 1
[21] = target: T1, Galectin-10 protein with His tag (expressed and purified with pk277) (Homo sapiens (Human)); assay: ELISA, His-tagged Galectin-10 coated at 500 ng/mL, 225# diluted 1:200, anti-GST mouse antibody and HRP goat anti-mouse, repeat 2
[22] = target: T1, Galectin-10 protein with His tag (expressed and purified with pk277) (Homo sapiens (Human)); assay: ELISA, His-tagged Galectin-10 coated at 500 ng/mL, 225# diluted 1:200, anti-GST mouse antibody and HRP goat anti-mouse, repeat 3
[23] = target: T1, Galectin-10 protein with His tag (expressed and purified with pk277) (Homo sapiens (Human)); assay: ELISA, His-tagged Galectin-10 coated at 2500 ng/mL, 225# diluted 1:200, anti-GST mouse antibody and HRP goat anti-mouse, repeat 1
[24] = target: T1, Galectin-10 protein with His tag (expressed and purified with pk277) (Homo sapiens (Human)); assay: ELISA, His-tagged Galectin-10 coated at 2500 ng/mL, 225# diluted 1:200, anti-GST mouse antibody and HRP goat anti-mouse, repeat 2
[25] = target: T1, Galectin-10 protein with His tag (expressed and purified with pk277) (Homo sapiens (Human)); assay: ELISA, His-tagged Galectin-10 coated at 2500 ng/mL, 225# diluted 1:200, anti-GST mouse antibody and HRP goat anti-mouse, repeat 3

B1: 254# nano antibody (SEQ ID NO: 3) (VHH, not shown: a dimerising Fc or GST; small tags and cut ends)
VHH: EVQLQASGGGFVQPGGSLRLSCAASGFTFSSFAMGWFRQAPGKEREFVSAISSGGGNTYYADSVKGRFTISRDNSKNTVYLQMNSLRAEDTATYYCVTPGGRLWYYRYDYRCQGTQVTVSS
minimum test concentration [1]: 125 ng/mL | OD at 450 nm [2]: 0.373 OD450 | OD at 450 nm [3]: 0.581 OD450 | OD at 450 nm [4]: 0.397 OD450 | OD at 450 nm [5]: 0.353 OD450 | OD at 450 nm [6]: 0.37 OD450 | OD at 450 nm [7]: 1.28 OD450 | OD at 450 nm [8]: 0.615 OD450 | OD at 450 nm [9]: 0.551 OD450 | OD at 450 nm [10]: 0.577 OD450 | OD at 450 nm [11]: 1.32 OD450 | OD at 450 nm [12]: 1.2 OD450 | OD at 450 nm [13]: 1.34 OD450

B2: 225# nano antibody (SEQ ID NO: 4) (VHH, not shown: a dimerising Fc or GST; small tags and cut ends)
VHH: B1 VHH with F32Y, F47L
minimum test concentration [1]: 125 ng/mL | OD at 450 nm [14]: 0.16 OD450 | OD at 450 nm [15]: 0.265 OD450 | OD at 450 nm [16]: 0.155 OD450 | OD at 450 nm [17]: 0.153 OD450 | OD at 450 nm [18]: 0.173 OD450 | OD at 450 nm [19]: 0.707 OD450 | OD at 450 nm [20]: 0.257 OD450 | OD at 450 nm [21]: 0.26 OD450 | OD at 450 nm [22]: 0.279 OD450 | OD at 450 nm [23]: 0.74 OD450 | OD at 450 nm [24]: 0.7 OD450 | OD at 450 nm [25]: 0.681 OD450
